Substitutions are numbered along the chain they refer to. Numbers in names are those of the source.

In general, Kd refers to the free concentration of one partner at which half of the binding sites on the other are occupied at equilibrium, for simple one-to-one binding. Low values mean a tighter complex, high ones a looser complex.

The chains are these.
B1: target 1 A1G,U3A (mixed)
RNA 1: CACCCGUGCAAAAAUGCAGGGGUCUAAAACUGAGCGGAUAACCUCUCUAUGG
RNA 2: GGGAAUGGAUCCACAUCUACGAAUUCGUACCAUAGAGAGGUUAUCCGCACGCCGAGAUCGGAAGAGCACACGU
B2: target 1 insA 3' of 5,insU 3' of 1 (mixed)
RNA 1: B1 RNA 1
RNA 2: GGGAAUGGAUCCACAUCUACGAAUUCGUACCAUAGAGAGGUUAUCCGACUCAUCCGAGAUCGGAAGAGCACACGU
B3: target 1 A18C,U19G (mixed)
RNA 1: B1 RNA 1
RNA 2: B1 RNA 2 with U33G, A34C, A49U, G51A
B4: target 3 insA 3' of 7,insG 3' of 6 (mixed)
RNA 1: CACCCGUGCAAAAUUGCAGGGGUCUAAAACGACCUGAAUAUUUCAGAUCAAA
RNA 2: GGGAAUGGAUCCACAUCUACGAAUUCGUUUUUGAUCUGAAAUAUUACGAGGUCUGCAGAUCGGAAGAGCACACGU
B5: target 3 insA 3' of 7,insU 3' of 3 (mixed)
RNA 1: B4 RNA 1
RNA 2: B4 RNA 2 with G48A, A49G, G51U
B6: target 3 A12C (mixed)
RNA 1: B4 RNA 1
RNA 2: GGGAAUGGAUCCACAUCUACGAAUUCGUUUUUGAUCUGACAUAUUCAGGUCUGCAGAUCGGAAGAGCACACGU
B7: target 3 U22G (mixed)
RNA 1: B4 RNA 1
RNA 2: B6 RNA 2 with U30G, C40A
B8: target 3 G3C,A5C (mixed)
RNA 1: B4 RNA 1
RNA 2: B6 RNA 2 with C40A, A47C, G49C
B9: target 3 insG 3' of 9,insG 3' of 7 (mixed)
RNA 1: B4 RNA 1
RNA 2: B4 RNA 2 with U44G, A46U, C47G, G48C
B10: target 3 insC 3' of 4,insA 3' of 3 (mixed)
RNA 1: B4 RNA 1
RNA 2: B4 RNA 2 with A46C, C47A, A49C, G51A
B11: target 3 insU 3' of 19,insU 3' of 3 (mixed)
RNA 1: B4 RNA 1
RNA 2: GGGAAUGGAUCCACAUCUACGAAUUCGUUUUUGUAUCUGAAAUAUUCAGGUUCUGCAGAUCGGAAGAGCACACGU
B12: target 3 insG 3' of 7,insA 3' of 6 (mixed)
RNA 1: B4 RNA 1
RNA 2: B4 RNA 2 with A46G, G48A
B13: target 3 U2G,A5G (mixed)
RNA 1: B4 RNA 1
RNA 2: B6 RNA 2 with C40A, A47G, U50G
B14: target 3 insA 3' of 8,insU 3' of 4 (mixed)
RNA 1: B4 RNA 1
RNA 2: B4 RNA 2 with U45A, A46U, G48A, A49G, G50U
B15: target 3 A5G,A13G (mixed)
RNA 1: B4 RNA 1
RNA 2: B6 RNA 2 with A39G, C40A, A47G
B16: target 3 insA 3' of 10,insA 3' of 6 (mixed)
RNA 1: B4 RNA 1
RNA 2: B4 RNA 2 with U44A, A46U, G48A
B17: target 3 A11C (mixed)
RNA 1: B4 RNA 1
RNA 2: B6 RNA 2 with C40A, A41C
B18: target 3 U8A,A18G (mixed)
RNA 1: B4 RNA 1
RNA 2: B6 RNA 2 with A34G, C40A, U44A
B19: target 3 insC 3' of 3,insU 3' of 3 (mixed)
RNA 1: B4 RNA 1
RNA 2: B4 RNA 2 with A46C, C47A, A49G, G50C, G51U
B20: target 3 insA 3' of 3,insA 3' of 2 (mixed)
RNA 1: B4 RNA 1
RNA 2: B4 RNA 2 with A46C, C47A, A49G, G50A, G51U, U52A
B21: target 3 insG 3' of 5,insU 3' of 3 (mixed)
RNA 1: B4 RNA 1
RNA 2: B4 RNA 2 with A46C, C47A, A49G, G51U
B22: target 3 G3C,U8A (mixed)
RNA 1: B4 RNA 1
RNA 2: B6 RNA 2 with C40A, U44A, G49C
B23: target 3 C6U,A9G (mixed)
RNA 1: B4 RNA 1
RNA 2: B6 RNA 2 with C40A, A43G, C46U
B24: target 3 U2A,A9G (mixed)
RNA 1: B4 RNA 1
RNA 2: B6 RNA 2 with C40A, A43G, U50A
B25: target 3 complement block 4-7 (mixed)
RNA 1: B4 RNA 1
RNA 2: B6 RNA 2 with C40A, U45A, C46G, A47U, G48C
B26: target 3 G4A,A13G (mixed)
RNA 1: B4 RNA 1
RNA 2: B6 RNA 2 with A39G, C40A, G48A
B27: target 3 C1A,U22G (mixed)
RNA 1: B4 RNA 1
RNA 2: B6 RNA 2 with U30G, C40A, C51A

This data set addresses T1, EsCas13d, nuclease-dead (Eubacterium siraeum, UniProt B0MS50, R295A;H300A;R849A;H854A).
T1 sequence: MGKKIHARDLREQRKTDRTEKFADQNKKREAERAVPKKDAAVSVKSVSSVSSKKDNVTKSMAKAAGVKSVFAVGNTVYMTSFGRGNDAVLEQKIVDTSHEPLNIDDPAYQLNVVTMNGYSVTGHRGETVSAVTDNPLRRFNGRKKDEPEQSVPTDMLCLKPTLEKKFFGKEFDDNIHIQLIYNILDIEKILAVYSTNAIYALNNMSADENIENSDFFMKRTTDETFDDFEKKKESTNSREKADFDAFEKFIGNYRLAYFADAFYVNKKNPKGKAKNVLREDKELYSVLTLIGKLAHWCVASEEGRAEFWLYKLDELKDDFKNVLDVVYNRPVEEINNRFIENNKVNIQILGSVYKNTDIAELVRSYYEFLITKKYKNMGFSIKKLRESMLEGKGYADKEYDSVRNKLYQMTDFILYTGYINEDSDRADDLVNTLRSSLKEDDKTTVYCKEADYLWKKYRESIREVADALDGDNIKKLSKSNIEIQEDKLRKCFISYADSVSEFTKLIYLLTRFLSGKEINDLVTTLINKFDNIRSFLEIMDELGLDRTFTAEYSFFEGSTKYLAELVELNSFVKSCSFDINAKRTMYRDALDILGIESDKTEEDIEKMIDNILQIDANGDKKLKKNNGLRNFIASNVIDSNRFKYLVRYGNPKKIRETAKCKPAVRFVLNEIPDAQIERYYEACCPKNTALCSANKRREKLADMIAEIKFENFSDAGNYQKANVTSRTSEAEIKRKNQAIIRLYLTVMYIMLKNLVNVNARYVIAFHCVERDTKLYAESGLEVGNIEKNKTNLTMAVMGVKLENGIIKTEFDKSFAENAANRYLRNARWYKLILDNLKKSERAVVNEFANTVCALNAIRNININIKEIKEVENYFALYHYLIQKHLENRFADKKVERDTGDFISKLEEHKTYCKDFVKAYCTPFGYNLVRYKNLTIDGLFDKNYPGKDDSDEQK
As to the kind of experiment: crRNA (strand 1, pre-loaded); Mg2+; 40 mM Tris-HCl pH 7.5, 150 mM NaCl, 6 mM MgCl2, 1 mM DTT, 0.1% Tween-20, 0.2 mg/ml BSA; 25 C; 10 min per concentration, then washed. The settings on record: tags: His6-TwinStrep-SUMO cleaved; N-terminal SNAP kept (SNAP-Surface 488); label: 3' end held by stalled T7 RNA polymerase.
B1 showed a Kd of 6.8 ± 0.6 nM.
In turn, B2 came in with a dissociation constant (Kd) of 9.5 ± 1 nM.
As to B3, the affinity, expressed as Kd, was 55 ± 14 nM.
The result for B4 reads 21.1 ± 1.4 nM; that for B5, 76 ± 32 nM; that for B6, 53 ± 8.5 nM.
B7 gave a dissociation constant (Kd) of 61 ± 13 nM.
The same measure for B8: 96.5 ± 15.5 nM.
B9 gave an equilibrium dissociation constant (Kd) of 63 ± 7 nM.
The result for B10 reads 34 ± 4.05 nM; that for B11, 105 ± 45 nM.
The result for B12 reads 29.3 ± 3.75 nM.
The result for B13 reads 2.54 ± 0.36 nM.
In the case of B14, the Kd is 21.8 ± 3.6 nM.
The same measure for B15: approximately 100 nM; for B16: 71 ± 8.5 nM.
B17 came in with an equilibrium dissociation constant (Kd) of 81.5 ± 34 nM.
The result for B18 reads 63 ± 9.5 nM; that for B19, 17.9 ± 2.1 nM; that for B20, 26.5 ± 6 nM.
The result for B21 reads 30 ± 4.5 nM.
As to B22, the dissociation constant Kd was found to be 63.5 ± 7.5 nM.
Regarding B23, the dissociation constant (Kd) is 22.1 ± 1.9 nM.
The result for B24 reads 47 ± 6 nM.
Take B25: the affinity, expressed as Kd, was 23.6 ± 1.75 nM. Compared with the last molecule, the Kd is about 2-fold lower.
The result for B26 reads 112 ± 35 nM; that for B27, approximately 87 nM.
